B1: GLT8D2 (parent)
chain: QEAKLLHWNGRHKPWDFPSVHNDL

Variants of: B1
Assay: protein stability index of a GFP-peptide fusion (GPS, HEK-293T) (PSI 1-6); higher = more stable
Settings: c terminus: a fixed tail appended
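Note: lentivirally expressed fusions sorted by FACS into six bins by GFP to DsRed ratio, PSI derived from sequencing read proportions per bin multiplied by bin number.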

Protein stability index, by site and new letter:
S19: F 2.31; N 2.84; K 2.6; G 2.51; E 3.92; Y 2.12; V 2.56; R 2.38; T 2.33; D 3.43; H 2.58; P 2.7; A 3.21
P14: R 2.56; E 3.16; V 2.09; T 2.52; W 2.19; G 2.87; N 2.66; K 2.69
L5: T 2.81; P 3.05; M 2.94; K 3.14; I 2.73; N 2.67; R 2.92; D 3.3; Y 2.45; C 2.77; A 3.04
D23: V 2.81; G 2.23; M 1.92; E 2.72; A 1.96; F 2.6; L 1.48; I 2.27; Q 2.4; Y 1.98; C 2.43; R 1.88; H 2.38
L24: H 2.65; K 2.87; D 3.75; M 2.98; E 4.01; G 3.07; S 3.51; T 3.41; Y 2.98; R 2.74; P 2.85; Q 3.5; I 2.44; A 3.33; V 2.42; C 3.01
N9: H 2.73; I 2; S 2.67; T 2.59; C 2.41; D 2.87; F 1.98; L 1.83; K 2.92; Q 2.76; E 2.73; M 2.1; W 1.75; V 2.25
H21: N 2.96; V 2.67; C 2.48; E 3.46; G 3.09; T 3; S 3.21; F 2.75; Q 2.94; A 2.9; M 3.05; L 2.39; Y 2.44; K 2.75; R 3; P 2.41
W8: V 3.1; Y 2.42; R 3.01; N 3.46; Q 3.71; E 3.47; L 3.24; G 3.6; K 2.69; D 3.5; I 2.9; P 2.63; F 2.62; H 2.85
W15: C 3.22; G 3.76; T 3.3; V 3.49; N 3.43; S 3.52; A 3.7; H 3.17; K 3.27; Q 4.37; P 3.81; D 3.59; R 3.55; L 2.87
H12: E 3.19; I 2.56; N 2.65; C 2.71; V 2.61; R 2.77; T 2.79; K 2.73; P 2.68; L 2.45; M 2.6; A 2.36; Y 2.28; F 2.13
N22: Y 1.91; G 2.63; A 2.9; D 3.27; L 2.53; C 2.11; M 2.01; E 3.2; V 1.92; Q 2.79; S 2.33; W 2.08; I 2.06; T 2.5; H 2.47; F 2.08; K 2.7
G10: L 2.42; C 1.49; H 2.48; Y 2.9; V 2.15; F 2.37; W 2.5; E 2.8; D 2.46; R 2.79; P 2.69; N 2.8; T 2.49; M 2.53
L6: I 2.67; N 2.71; W 2.26; E 3.74; D 2.79; P 2.7; V 2.48; A 2.87; G 2.89; F 2.83; C 2.75; K 2.52; R 2.85
P18: W 1.8; G 2.32; M 2.26; A 2.23; Y 2.24; I 2.23; C 2.6; V 2.82; T 2.32; S 2.59; E 2.98; K 2.99; L 2.25
A3: I 2.24; K 2.59; N 2.84; D 3.47; R 1.95; P 2.33; H 2.83; G 2.6; C 2.23; M 3.06; Q 2.58; T 2.75; E 3.51; Y 2.19; L 2.59
K4: P 2.83; Y 2.13; Q 2.5; L 2.56; S 2.99; A 2.81; C 2.3; V 2.34; I 2.47; D 2.67; M 2.64; T 2.92; E 3.28; R 2.87; H 2.84; F 2; G 2.89
H7: E 2.98; C 2.25; P 2.94; L 2.15; D 3.16; T 2.88; S 2.69; W 2.84; K 2.48; I 2.25; F 2.41; G 2.63; A 2.87
D16: W 2.5; C 1.55; Q 2.48; E 2.69; M 2.12; K 2.26; V 2.12; G 2.39; P 2.46; A 1.96; H 2.09; S 2.46; L 2.32; N 2.42; I 2.37
V20: D 3.53; G 2.84; W 2.38; R 2.94; T 2.52; C 2.54; A 2.97; N 3.23; Q 3.17; P 2.81; K 2.56; S 3; L 2.41; F 2.53; Y 2.06; M 2.43; I 2.78
E2: I 1.78; P 2.58; G 2.39; K 2.18; M 1.45; Y 2.04; N 2.48; C 1.97; S 2.04; D 2.65; R 2.17; V 1.89; H 2.21; Q 2.85; T 2.18
K13: L 2.26; F 2.69; M 2.94; I 2.35; H 2.47; Q 2.7; N 2.77; C 2.29; S 2.27; Y 2.43; D 3.73; A 2.85; G 2.62
R11: G 2.64; T 3.11; V 2.62; D 3.33; F 2.58; Y 2.28; K 2.61; N 3.05; I 2.76; A 3.24; E 3.58; Q 3.35; H 2.64
F17: C 3.14; I 3.1; G 3.15; N 2.85; A 3.45; S 3.96; R 3.04; H 3.24; V 3.18; Q 3.3; W 2.58; L 3.05
Q1: D 3.54; N 2.84; E 3.02; Y 1.79; W 2.21; G 2.65; A 2.68; T 2.49; F 1.65; M 2.35; C 1.75; V 2; I 1.69; S 2.51
